In the MegaScale stability set (Tsuboyama et al. 2023):

B1: r11_951_TrROS_Hall (parent)
chain: KKKYVIKVYFEDTGKEVEIEAESKEEALEAAKRLAEELGLKIKKVEIYP

Variants of: B1
Test: folding stability dG (cDNA display proteolysis); higher = more stable
Conditions: PBS, room temperature

| Variant | folding stability dG [kcal/mol] |
| --- | --- |
| KKKYVIKVYFEDTGKEVEIEAESKEEALEYAKRLAEELGLKIKKVEIYP [A30Y] | 4.89 |
| KKKYVIKVYFEDTGKEVEIEAESKEEALEACKRLAEELGLKIKKVEIYP [A31C] | 4.18 |
| KKKYVIKVYFEDTGKEVEIEAESKEEALEADKRLAEELGLKIKKVEIYP [A31D] | 0.894 |
| KKKYVIKVYFEDTGKEVEIEAESKEEALEAEKRLAEELGLKIKKVEIYP [A31E] | 2.11 |
| KKKYVIKVYFEDTGKEVEIEAESKEEALEAFKRLAEELGLKIKKVEIYP [A31F] | 4.48 |
| KKKYVIKVYFEDTGKEVEIEAESKEEALEAGKRLAEELGLKIKKVEIYP [A31G] | 4.15 |
| KKKYVIKVYFEDTGKEVEIEAESKEEALEAHKRLAEELGLKIKKVEIYP [A31H] | 2.62 |
| KKKYVIKVYFEDTGKEVEIEAESKEEALEAIKRLAEELGLKIKKVEIYP [A31I] | 4.2 |
| KKKYVIKVYFEDTGKEVEIEAESKEEALEAKKRLAEELGLKIKKVEIYP [A31K] | 2.42 |
| KKKYVIKVYFEDTGKEVEIEAESKEEALEALKRLAEELGLKIKKVEIYP [A31L] | 4.21 |
| KKKYVIKVYFEDTGKEVEIEAESKEEALEAMKRLAEELGLKIKKVEIYP [A31M] | 4.4 |
| KKKYVIKVYFEDTGKEVEIEAESKEEALEANKRLAEELGLKIKKVEIYP [A31N] | 1.73 |
| KKKYVIKVYFEDTGKEVEIEAESKEEALEAPKRLAEELGLKIKKVEIYP [A31P] | 3.02 |
| KKKYVIKVYFEDTGKEVEIEAESKEEALEAQKRLAEELGLKIKKVEIYP [A31Q] | 2.81 |
| KKKYVIKVYFEDTGKEVEIEAESKEEALEARKRLAEELGLKIKKVEIYP [A31R] | 2.47 |
| KKKYVIKVYFEDTGKEVEIEAESKEEALEASKRLAEELGLKIKKVEIYP [A31S] | 4.2 |
| KKKYVIKVYFEDTGKEVEIEAESKEEALEATKRLAEELGLKIKKVEIYP [A31T] | 4.01 |
| KKKYVIKVYFEDTGKEVEIEAESKEEALEAVKRLAEELGLKIKKVEIYP [A31V] | 4.45 |
| KKKYVIKVYFEDTGKEVEIEAESKEEALEAWKRLAEELGLKIKKVEIYP [A31W] | 4.25 |
| KKKYVIKVYFEDTGKEVEIEAESKEEALEAYKRLAEELGLKIKKVEIYP [A31Y] | 4.33 |
| KKKYVIKVYFEDTGKEVEIEAESKEEALEAAARLAEELGLKIKKVEIYP [K32A] | 4.44 |
| KKKYVIKVYFEDTGKEVEIEAESKEEALEAACRLAEELGLKIKKVEIYP [K32C] | 4.22 |
| KKKYVIKVYFEDTGKEVEIEAESKEEALEAADRLAEELGLKIKKVEIYP [K32D] | 4.21 |
| KKKYVIKVYFEDTGKEVEIEAESKEEALEAAERLAEELGLKIKKVEIYP [K32E] | 4.28 |
| KKKYVIKVYFEDTGKEVEIEAESKEEALEAAFRLAEELGLKIKKVEIYP [K32F] | 4.98 |
| KKKYVIKVYFEDTGKEVEIEAESKEEALEAAGRLAEELGLKIKKVEIYP [K32G] | 4.13 |
| KKKYVIKVYFEDTGKEVEIEAESKEEALEAAHRLAEELGLKIKKVEIYP [K32H] | 4.55 |

| Variant | folding stability dG [kcal/mol] |
| --- | --- |
| KKKYVIKVYFEDTGKEVEIEAESKEEALEAAIRLAEELGLKIKKVEIYP [K32I] | 4.34 |
| KKKYVIKVYFEDTGKEVEIEAESKEEALEAALRLAEELGLKIKKVEIYP [K32L] | 4.55 |
| KKKYVIKVYFEDTGKEVEIEAESKEEALEAAMRLAEELGLKIKKVEIYP [K32M] | 4.68 |
| KKKYVIKVYFEDTGKEVEIEAESKEEALEAANRLAEELGLKIKKVEIYP [K32N] | 4.51 |
| KKKYVIKVYFEDTGKEVEIEAESKEEALEAAPRLAEELGLKIKKVEIYP [K32P] | 3.09 |
| KKKYVIKVYFEDTGKEVEIEAESKEEALEAAQRLAEELGLKIKKVEIYP [K32Q] | 4.38 |
| KKKYVIKVYFEDTGKEVEIEAESKEEALEAARRLAEELGLKIKKVEIYP [K32R] | 4.26 |
| KKKYVIKVYFEDTGKEVEIEAESKEEALEAASRLAEELGLKIKKVEIYP [K32S] | 4.42 |
| KKKYVIKVYFEDTGKEVEIEAESKEEALEAATRLAEELGLKIKKVEIYP [K32T] | 4.41 |
| KKKYVIKVYFEDTGKEVEIEAESKEEALEAAVRLAEELGLKIKKVEIYP [K32V] | 4.35 |
| KKKYVIKVYFEDTGKEVEIEAESKEEALEAAWRLAEELGLKIKKVEIYP [K32W] | 4.78 |
| KKKYVIKVYFEDTGKEVEIEAESKEEALEAAYRLAEELGLKIKKVEIYP [K32Y] | 4.9 |
| KKKYVIKVYFEDTGKEVEIEAESKEEALEAAKALAEELGLKIKKVEIYP [R33A] | 4.04 |
| KKKYVIKVYFEDTGKEVEIEAESKEEALEAAKCLAEELGLKIKKVEIYP [R33C] | 4.17 |
| KKKYVIKVYFEDTGKEVEIEAESKEEALEAAKDLAEELGLKIKKVEIYP [R33D] | 4.09 |
| KKKYVIKVYFEDTGKEVEIEAESKEEALEAAKELAEELGLKIKKVEIYP [R33E] | 4.03 |
| KKKYVIKVYFEDTGKEVEIEAESKEEALEAAKFLAEELGLKIKKVEIYP [R33F] | 4.38 |
| KKKYVIKVYFEDTGKEVEIEAESKEEALEAAKGLAEELGLKIKKVEIYP [R33G] | 4.21 |
| KKKYVIKVYFEDTGKEVEIEAESKEEALEAAKHLAEELGLKIKKVEIYP [R33H] | 4.18 |
| KKKYVIKVYFEDTGKEVEIEAESKEEALEAAKILAEELGLKIKKVEIYP [R33I] | 4.28 |
| KKKYVIKVYFEDTGKEVEIEAESKEEALEAAKKLAEELGLKIKKVEIYP [R33K] | 4.39 |
| KKKYVIKVYFEDTGKEVEIEAESKEEALEAAKLLAEELGLKIKKVEIYP [R33L] | 4.23 |
| KKKYVIKVYFEDTGKEVEIEAESKEEALEAAKMLAEELGLKIKKVEIYP [R33M] | 4.32 |
| KKKYVIKVYFEDTGKEVEIEAESKEEALEAAKNLAEELGLKIKKVEIYP [R33N] | 4.22 |
| KKKYVIKVYFEDTGKEVEIEAESKEEALEAAKPLAEELGLKIKKVEIYP [R33P] | 2.02 |
| KKKYVIKVYFEDTGKEVEIEAESKEEALEAAKQLAEELGLKIKKVEIYP [R33Q] | 4.02 |
